We go through two substances from paper PMC6420652.

Test [1] has as its target antizyme-mRuby2 (antizyme with a C-terminal mRuby2 tag) (UniProt P54368). Nature of the test: FRET titration. The note with it: parent: est. 24; read off a plot.
In a further test the target is AZIN (Homo sapiens) (UniProt O14977). Description: ultracentrifugation. The note with it: cited from earlier work.
Sequence of AZIN (Homo sapiens) (O14977 whole entry): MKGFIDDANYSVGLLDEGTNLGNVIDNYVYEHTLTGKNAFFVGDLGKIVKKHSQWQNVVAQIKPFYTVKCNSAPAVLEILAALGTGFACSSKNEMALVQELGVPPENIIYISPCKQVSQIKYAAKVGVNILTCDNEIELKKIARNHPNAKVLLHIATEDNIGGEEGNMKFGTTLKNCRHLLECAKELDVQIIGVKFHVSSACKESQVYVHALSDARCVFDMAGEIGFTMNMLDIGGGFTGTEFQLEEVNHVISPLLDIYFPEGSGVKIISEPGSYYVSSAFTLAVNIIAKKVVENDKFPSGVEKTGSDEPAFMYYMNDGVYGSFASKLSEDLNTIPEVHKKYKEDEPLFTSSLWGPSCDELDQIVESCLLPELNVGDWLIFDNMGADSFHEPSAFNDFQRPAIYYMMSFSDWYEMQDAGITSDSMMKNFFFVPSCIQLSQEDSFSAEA

Sequence of Clover-AZIN (antizyme inhibitor with an N-terminal Clover tag) (O14977 whole entry, stated change not applied): as the sequence (O14977 whole entry) above
Sequence of antizyme-mRuby2 (antizyme with a C-terminal mRuby2 tag) (P54368 whole entry): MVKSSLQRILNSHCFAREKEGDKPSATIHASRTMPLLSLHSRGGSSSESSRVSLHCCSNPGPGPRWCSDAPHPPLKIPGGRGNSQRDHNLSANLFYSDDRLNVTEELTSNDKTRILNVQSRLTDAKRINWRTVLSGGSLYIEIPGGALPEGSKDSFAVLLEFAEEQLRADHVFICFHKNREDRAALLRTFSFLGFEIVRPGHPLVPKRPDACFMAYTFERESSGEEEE
Sequence of Antizyme (P54368 whole entry): as above

Consider “Clover-AZIN (antizyme inhibitor with an N-terminal Clover tag) (from UniProt O14977) V137A”, for which, in test [1], the equilibrium dissociation constant (Kd) worked out at 11 nM. For the substance Antizyme (from UniProt P54368), the Kd with AZIN (Homo sapiens) is 20 nM.

As usually defined, the Kd is the concentration at which binding is half-saturated.
